In article PMC6555848 one finds Kd data, which are given here for three substances.

For the assay, the target named is fluorescein-labeled phospho-Tyr peptide derived from the EPO receptor (FAM-GpYLVLDKW). Kind of assay: fluorescence polarisation; 10 nM FAM-labelled peptide, increasing STAT5B protein; 20 mM HEPES, 50 mM NaCl, 0.1% NP-40 substitute, 10% DMSO; 1 h at room temperature; 1:1 model; pH of the Kd values printed in the text not stated (pH 6.8, 7.25, 7.5 or 7.9 were used).
In turn, “STAT5B^N642A (from UniProt P51692 1-787) (natural protein)” came in with a Kd of 612 nM.

The substance “STAT5B^N642D (from UniProt P51692 1-787) (natural protein)” had a Kd of 261 nM.

Substance “STAT5B^N642Q (from UniProt P51692 1-787) (natural protein)” displayed a Kd of 229 nM.
